Test results taken from patent publication US20190070248A1 (BIONTECH, published 2019).
Positions of bridges follow the written chain, without caps; N, C: chain ends. No end group written: not given here. *: point of attachment. Biotin = O=C1N[C@H]2[C@H](CS[C@H]2CCCCC(=O)*)N1

Tests used:
[1] = target: T1, TR66 antibody (CD3ε specific antibody, clone TR66); assay: apparent KD, peptide ELISA, biotinylated peptide on streptavidin plate, TR66 titrated, two-site saturation fit
T1 construct: Whole antibody

[2] = target: T1, TR66 antibody (CD3ε specific antibody, …); assay: peptide ELISA, apparent KD against the parental peptide

ACTRPGDPACGGGSK(Biotin) (disulfide 2-10 (inferred)) [aCD3-04-008 (ACTRPGDPAC-GGGS-K(Bio))]
Kd [1]: 164 nM

B1: aCD3 C7C-4 (ACTRPGDPQC-GGGS-K(Bio)) (peptide)
peptide: ACTRPGDPQCGGGSK(Biotin)
modifications: disulfide 2-10 (inferred)
notes: On the microarrays the peptide was immobilized covalently through a reactive moiety, not through K(Bio); also called clone 4; parental peptide
Kd [1]: 370 nM

ACTRPEDPQCGGGSK(Biotin) (disulfide 2-10 (inferred)) [aCD3-04-007 (ACTRPEDPQC-GGGS-K(Bio))]
Kd [1]: 299 nM

ACTRPDDPECGGGSK(Biotin) (disulfide 2-10 (inferred), also called TR66 mimotope aCD3-04-013) [aCD3-04-013 (ACTRPDDPEC-GGGS-K(Bio))]
fold lower apparent KD than the parental peptide aCD3 C7C-4 [2]: ~100 fold | Kd [1]: 4 nM

WCTRPGDPQCGGGSK(Biotin) (disulfide 2-10 (inferred)) [aCD3-04-006 (WCTRPGDPQC-GGGS-K(Bio))]
Kd [1]: 226 nM

ACTRPDDPQCGGGSK(Biotin) (disulfide 2-10 (inferred)) [aCD3-04-002 (ACTRPDDPQC-GGGS-K(Bio))]
fold lower apparent KD than the parental peptide aCD3 C7C-4 [2]: ~5 fold | Kd [1]: 78 nM

ACTRPDDPWCGGGSK(Biotin) (disulfide 2-10 (inferred)) [aCD3-04-014 (ACTRPDDPWC-GGGS-K(Bio))]
Kd [1]: 111 nM

ACTRPGDPYCGGGSK(Biotin) (disulfide 2-10 (inferred)) [aCD3-04-009 (ACTRPGDPYC-GGGS-K(Bio))]
Kd [1]: 167 nM
